The target in assay [1] is AαBβγ half-molecule of human fibrinogen (human) (UniProt P02671). Put plainly: SEC.
The target in assay [2] is T1, fibrinogen Bβ chain (human) (human, UniProt P02675 31-491, N-linked glycan at N364).
T1 sequence (looked up): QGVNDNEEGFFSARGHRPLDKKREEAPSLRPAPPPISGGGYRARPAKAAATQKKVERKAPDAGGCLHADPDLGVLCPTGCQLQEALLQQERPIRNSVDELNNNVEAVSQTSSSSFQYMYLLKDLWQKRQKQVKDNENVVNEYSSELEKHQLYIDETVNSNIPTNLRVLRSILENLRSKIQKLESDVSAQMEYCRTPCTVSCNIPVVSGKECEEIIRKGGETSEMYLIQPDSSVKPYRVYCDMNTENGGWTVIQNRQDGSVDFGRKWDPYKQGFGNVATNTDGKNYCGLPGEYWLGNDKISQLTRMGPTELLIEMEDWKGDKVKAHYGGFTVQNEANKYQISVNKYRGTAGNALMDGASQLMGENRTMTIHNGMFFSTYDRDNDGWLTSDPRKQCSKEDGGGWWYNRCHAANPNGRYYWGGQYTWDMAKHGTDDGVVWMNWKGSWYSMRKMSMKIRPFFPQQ
The experiment in a line: SEC. (In general: Size exclusion chromatography separates by hydrodynamic size, large species first.)

These results are taken from doi:10.1101/2022.09.05.506423 (bioRxiv, 2022).

By stoichiometry N is commonly meant the number of molecules, sites or subunits per partner or assembly. “AαBβγ half-molecule of human fibrinogen (from UniProt P02671-2 20-644; P02675 31-491; P02679-2 27-437) (complex)” came in with a stoichiometry N in assay [1] of 2.

B1: fibrinogen γ chain, γ-A isoform (human) (natural protein, UniProt P02679-2 27-437, looked up)
chain: YVATRDNCCILDERFGSYCPTTCGIADFLSTYQTKVDKDLQSLEDILHQVENKTSEVKQLIKAIQLTYNPDESSKPNMIDAATLKSRKMLEEIMKYEASILTHDSSIRYLQEIYNSNNQKIVNLKEKVAQLEAQCQEPCKDTVQIHDITGKDCQDIANKGAKQSGLYFIKPLKANQQFLVYCEIDGSGNGWTVFQKRLDGSVDFKKNWIQYKEGFGHLSPTGTTEFWLGNEKIHLISTQSAIPYALRVELEDWNGRTSTADYAMFKVGPEADKYRLTYAYFAGGDAGDAFDGFDFGDDPSDKFFTSHNGMQFSTWDNDNDKFEGNCAEQDGSGWWMNKCHAGHLNGVYYQGGTYSKASTPNGYDNGIIWATWKTRWYSMKKTTMKIIPFNRLTIGEGQQHHLGGAKQAGDV
modifications: N-linked glycan at N52
As to B1, the binding result in assay [2] is on record as “binds”.
